Data taken from publication doi:10.1101/2022.09.30.510402.

Molecular target: modified αM subunit in which the αMI-domain was deleted (I-less form of Mac-1) (human) (UniProt P11215)
Assay: co-IP

Sequence of CD47 (Q08722 19-323): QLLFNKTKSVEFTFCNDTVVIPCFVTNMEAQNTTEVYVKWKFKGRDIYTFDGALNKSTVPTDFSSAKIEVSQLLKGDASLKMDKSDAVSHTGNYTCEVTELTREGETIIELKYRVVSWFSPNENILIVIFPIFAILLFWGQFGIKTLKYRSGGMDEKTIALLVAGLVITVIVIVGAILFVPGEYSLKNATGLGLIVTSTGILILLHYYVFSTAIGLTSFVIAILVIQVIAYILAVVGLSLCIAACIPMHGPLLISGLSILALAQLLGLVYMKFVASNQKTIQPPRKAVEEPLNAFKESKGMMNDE

fold more CD47 bound than by the whole integrin: 1.5
Substance: CD47 (from UniProt Q08722 19-323) (natural protein)
